± gives the standard deviation of the averaged measurements.
Tested on: Saccharomyces cerevisiae
Experiment: protein stability index of tFT-peptide fusion (C-terminal peptide) (PSI (0-1 scale)); higher = more stable (slower turnover)
Details: genetic background: wild type; temperature: 30 C
Description: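 Multiplexed protein stability (MPS) profiling in S. cerevisiae. Random 12-aa peptides (tFT-X12 library) are fused to the C-terminus of a sfGFP-mCherry tandem fluorescent timer, after mCherry and a GGGS linker. Cells are FACS-sorted into 8 mCherry/sfGFP bins and deep-sequenced. The protein stability index (PSI) is the read-weighted bin average, scaled from 0 (unstable) to 1 (stable). Only peptides with >10 reads are reported; cells were grown at 30 °C in SC-His with glucose.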
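Note: PSI is a weighted mean of sequencing reads over stability bins, variants kept only with over 10 reads, mCherry proximal and sfGFP distal, peptide attached via GGGS linker.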

| Sequence | protein stability index |
| --- | --- |
| GFLGLLASFFVL | 0.604 ± 0.022 |
| RGGGGVLEVLLG | 0.5347 ± 0.0046 |
| FLVPTYISPFSF | 0.65 ± 0.027 |
| TNSVGCRIGGKQ | 0.646 ± 0.02 |
| WGPGGVAWGAWW | 0.7837 ± 0.0022 |
| VGGLAFSTSSIW | 0.809 ± 0.11 |
| LFLDSTSTLPAP | 0.662 ± 0.028 |
| RPLRRQREVCGA | 0.597 ± 0.019 |
| LPHSYFCPTFFF | 0.675 ± 0.019 |
| PIGVFFVSGCVG | 0.606 ± 0.014 |
| RGGGGRGWGSRG | 0.67 ± 0.027 |
| LCANDRGVAALA | 0.683 ± 0.046 |
| LSFDAVSVGFGG | 0.691 ± 0.064 |
| LPRGLRAISCVE | 0.569 ± 0.024 |
| PLPRLSYRPPTL | 0.663 ± 0.028 |
| PVPCNYSPVIHL | 0.688 ± 0.029 |
| PPPAFRLPLPPP | 0.727 ± 0.072 |
| VLWIWRGFRGLG | 0.626 ± 0.011 |
| PSSPPDLAFRPP | 0.6157 ± 0.0049 |
| LASSSPPTRPPH | 0.702 ± 0.048 |
| SLSPARKDSSLP | 0.683 ± 0.15 |

| Sequence | protein stability index |
| --- | --- |
| GRSNRRPWRSGL | 0.649 ± 0.018 |
| GYRSLADSIDLL | 0.7244 ± 0.0066 |
| SLPPPLPRRPPP | 0.729 ± 0.13 |
| HTWAFYSETVCL | 0.694 ± 0.0092 |
| KKKRKEEIKKKK | 0.742 ± 0.012 |
| HPPPTSQPPPGP | 0.726 ± 0.05 |
| SLDQGRLRRLVG | 0.641 ± 0.061 |
| PPPHAARSLFSL | 0.733 ± 0.098 |
| PFPSPSRHSLFP | 0.723 ± 0.084 |
| RFGRGAVGGLGG | 0.668 ± 0.02 |
| PPSPPSPPPSAP | 0.704 ± 0.0093 |
| GGASRLARMGWW | 0.642 ± 0.034 |
| ARGSTGLKLRWG | 0.706 ± 0.0096 |
| GGSNEKARGTGR | 0.6544 ± 0.00083 |
| ILCPGLYQFLVF | 0.529 ± 0.038 |
| GFFNNRLASSLR | 0.734 ± 0.098 |
| THPPSFHPSRAP | 0.693 ± 0.092 |
| IHDGKKEGKSQK | 0.695 ± 0.017 |
| KKQQKKKNKNDR | 0.651 ± 0.017 |
| PTDAFFGLCMDC | 0.68 ± 0.038 |
| RLNNRVMGHIEA | 0.6673 ± 0.0062 |

| Sequence | protein stability index |
| --- | --- |
| VGPFSSSRIGTS | 0.6003 ± 0.0019 |
| QEVTEVFSSTSY | 0.658 ± 0.01 |
| LLVNLNINYFKR | 0.689 ± 0.018 |
| KKKNKKEDKRKK | 0.6942 ± 0.0031 |
| LYPTISCSARDG | 0.699 ± 0.013 |
| SLFLLFRSRACS | 0.539 ± 0.011 |
| PPSNAFEETLRT | 0.7 ± 0.015 |
| HSGPPSPFPLNV | 0.718 ± 0.034 |
| AHPPPPQLPHPH | 0.7241 ± 0.0023 |
| RRCRLNPPIDST | 0.683 ± 0.088 |
| AIRTPPTRTPPA | 0.71 ± 0.049 |
| RMKKYKYELDLN | 0.659 ± 0.019 |
| EMRAGNWWGREG | 0.728 ± 0.054 |
| PPRPPLSPPRSA | 0.718 ± 0.014 |
| ALPYPPRFPHCS | 0.645 ± 0.019 |
| PPSPSPPSPPPP | 0.656 ± 0.007 |
| PPPPPPSLPLPP | 0.6709 ± 0.0044 |
| PHALSSFLSLFL | 0.791 ± 0.017 |
| NRQDASAPVCLL | 0.719 ± 0.049 |
| PHRPPPHHSLPP | 0.6976 ± 0.0013 |
| PSPARLFVSPSP | 0.649 ± 0.04 |

| Sequence | protein stability index |
| --- | --- |
| EGRRAVGRGRGR | 0.672 ± 0.05 |
| CQERKLKNQPMV | 0.607 ± 0.054 |
| CTFSGSHGSFPS | 0.717 ± 0.028 |
| IRDKTSIRKLEK | 0.677 ± 0.058 |
| SLLFPPSPPPPA | 0.673 ± 0.011 |
| GVEFKVVSFVVD | 0.646 ± 0.094 |
| TPPFPSPLPPPS | 0.753 ± 0.013 |
| LLTWENWVVPRL | 0.738 ± 0.053 |
| NHRANKIRKCKD | 0.6298 ± 0.0016 |
| KKPVNINNKLSA | 0.647 ± 0.017 |
| ALFTVGNRPSSL | 0.701 ± 0.021 |
| EKRDRKKNPRGS | 0.744 ± 0.1 |
| KTIQDNNYDGIW | 0.766 ± 0.25 |
| MIASRVSYDMSY | 0.608 ± 0.043 |
| LIDKPNNGVWIS | 0.587 ± 0.042 |
| KTGRPSRRGSTT | 0.704 ± 0.036 |
| VLHFIFLCRCPV | 0.497 ± 0.011 |
| TWSLYFSCRLFW | 0.54 ± 0.055 |

Source: the supplement of paper PMC10724198
